The text below walks through data of PMC9259484 (Nature, 2022).

This test addresses SARS-CoV-2 Wuhan-Hu-1 receptor binding domain (RBD), Spike (S) protein residues 319-539 (SARS-CoV-2, UniProt P0DTC2). The experiment in a line: BLI. The settings on record: both partners purified.

B1: C105 (antibody, V domains shown)
VH: QVQLVESGGGLIQPGGSLRLSCAASGFTVSSNYMSWVRQAPGKGLEWVSVIYSGGSTYYADSVKGRFTISRDNSKNTLYLQMNSLRAEDTAVYYCARGEGWELPYDYWGQGTLVTVSS
VL: QSALTQPPSASGSPGQSVTISCTGTSSDVGGYKYVSWYQQHPGKAPKLMIYEVSKRPSGVPDRFSGSKSGNTASLTVSGLQAEDEADYYCSSYEGSNNFVVFGGGTKLTVL
With B1, the binding result is recorded as “binds”.

B2: C118 (antibody, V domains shown)
VH: QVQLVESGGGVVQPGRSLRLSCAASGFTFSNYAMHWVRQAPGKGLEWVAVISYDGSNKYYADSVKGRFTISRDNSKNTLYLQMNSLRAEDTAIYYCASGYTGYDYFVRGDYYGLDVWGQGTTVTVSS
VL: QPVLTQSPSASASLGASVKLTCTLSSGHSSYAIAWHQQQPEKGPRYLMKLNTDGSHSKGDGIPDRFSGSSSGAERYLTISSLQSEDEADYYCQTWGTGILVFGGGTKLTVL
B2: the binding result was “binds”.
